Results: patent US20130316941A1 (Boehringer Ingelheim, published 2013)

Tests used:
[1] = molecular target: human glucagon-like peptide 1 receptor (GLP-1R) (human, UniProt P43220 24-463); assay: cell-based or functional assay
[2] = molecular target: human glucagon receptor (Glucagon-R) (human, UniProt P47871 26-477); assay: cell-based or functional assay
human glucagon receptor (Glucagon-R), sequence (P47871 26-477): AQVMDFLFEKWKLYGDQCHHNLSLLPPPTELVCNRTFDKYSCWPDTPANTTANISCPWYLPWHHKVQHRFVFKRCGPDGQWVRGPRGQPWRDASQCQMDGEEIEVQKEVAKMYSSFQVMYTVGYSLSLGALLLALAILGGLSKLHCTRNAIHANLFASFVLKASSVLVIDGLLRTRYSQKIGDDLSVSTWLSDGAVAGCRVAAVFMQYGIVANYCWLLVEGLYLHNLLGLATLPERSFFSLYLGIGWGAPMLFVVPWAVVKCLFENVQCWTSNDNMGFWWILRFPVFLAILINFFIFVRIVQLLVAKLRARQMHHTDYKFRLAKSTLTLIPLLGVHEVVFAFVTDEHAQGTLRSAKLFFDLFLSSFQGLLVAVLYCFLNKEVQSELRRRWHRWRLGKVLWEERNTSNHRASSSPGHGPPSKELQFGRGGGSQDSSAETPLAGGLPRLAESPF

Binder	EC50 values for cAMP generation in HEK293 cells expressing GLP-1 receptor [1] [nM]	EC50 values for cAMP generation in HEK293 cells expressing Glucagon receptor [2] [nM]
HXPGTFTSDYSRYLDEKRARDFIEWLLSA (HELM PEPTIDE1{H.[Aib].P.G.T.F.T.S.D.Y.S.R.Y.L.D.E.K.R.A.R.D.F.I.E.W.L.L.S.A.[am]}|PEPTIDE2{[CCCCCCCCCCCCCCCC(=O)[*:2]].[gGlu]}$PEPTIDE1,PEPTIDE2,17:R3-2:R2$$$V2.0; SMILES CCCCCCCCCCCCCCCC(=O)N[C@@H](CCC(=O)NCCCC[C@H](NC(=O)[C@H](CCC(=O)O)NC(=O)[C@H](CC(=O)O)NC(=O)[C@H](CC(C)C)NC(=O)[C@H](Cc1ccc(O)cc1)NC(=O)[C@H](CCCNC(=N)N)NC(=O)[C@H](CO)NC(=O)[C@H](Cc1ccc(O)cc1)NC(=O)[C@H](CC(=O)O)NC(=O)[C@H](CO)NC(=O)[C@@H](NC(=O)[C@H](Cc1ccccc1)NC(=O)[C@@H](NC(=O)CNC(=O)[C@@H]1CCCN1C(=O)C(C)(C)NC(=O)[C@@H](N)Cc1c[nH]cn1)[C@@H](C)O)[C@@H](C)O)C(=O)N[C@@H](CCCNC(=N)N)C(=O)N[C@@H](C)C(=O)N[C@@H](CCCNC(=N)N)C(=O)N[C@@H](CC(=O)O)C(=O)N[C@@H](Cc1ccccc1)C(=O)N[C@H](C(=O)N[C@@H](CCC(=O)O)C(=O)N[C@@H](Cc1c[nH]c2ccccc12)C(=O)N[C@@H](CC(C)C)C(=O)N[C@@H](CC(C)C)C(=O)N[C@@H](CO)C(=O)N[C@@H](C)C(N)=O)[C@@H](C)CC)C(=O)O) [H-H-Aib-PGTFTSDYSRYLDE-K(Hexadecanoyl-isoGlu)-RARDFIEWLLSA-NH2 [Compound 15]]	0.06	0.42
HXQGTFTSDYSRYLDEKRAKDFIEWLLSA (HELM PEPTIDE1{H.[Aib].Q.G.T.F.T.S.D.Y.S.R.Y.L.D.E.K.R.A.K.D.F.I.E.W.L.L.S.A.[am]}|PEPTIDE2{[CCCCCCCCCCCCCCCC(=O)[*:2]].[gGlu]}$PEPTIDE1,PEPTIDE2,17:R3-2:R2$$$V2.0; SMILES CCCCCCCCCCCCCCCC(=O)N[C@@H](CCC(=O)NCCCC[C@H](NC(=O)[C@H](CCC(=O)O)NC(=O)[C@H](CC(=O)O)NC(=O)[C@H](CC(C)C)NC(=O)[C@H](Cc1ccc(O)cc1)NC(=O)[C@H](CCCNC(=N)N)NC(=O)[C@H](CO)NC(=O)[C@H](Cc1ccc(O)cc1)NC(=O)[C@H](CC(=O)O)NC(=O)[C@H](CO)NC(=O)[C@@H](NC(=O)[C@H](Cc1ccccc1)NC(=O)[C@@H](NC(=O)CNC(=O)[C@H](CCC(N)=O)NC(=O)C(C)(C)NC(=O)[C@@H](N)Cc1c[nH]cn1)[C@@H](C)O)[C@@H](C)O)C(=O)N[C@@H](CCCNC(=N)N)C(=O)N[C@@H](C)C(=O)N[C@@H](CCCCN)C(=O)N[C@@H](CC(=O)O)C(=O)N[C@@H](Cc1ccccc1)C(=O)N[C@H](C(=O)N[C@@H](CCC(=O)O)C(=O)N[C@@H](Cc1c[nH]c2ccccc12)C(=O)N[C@@H](CC(C)C)C(=O)N[C@@H](CC(C)C)C(=O)N[C@@H](CO)C(=O)N[C@@H](C)C(N)=O)[C@@H](C)CC)C(=O)O) [H-H-Aib-QGTFTSDYSRYLDE-K(Hexadecanoyl-isoGlu)-RAKDFIEWLLSA-NH2 [Compound 16]]	0.06	0.11
HSQGTFTSDYSKYLDERRAKDFIKWLLSA (HELM PEPTIDE1{H.S.Q.G.T.F.T.S.D.Y.S.K.Y.L.D.E.R.R.A.K.D.F.I.K.W.L.L.S.A.[am]}|PEPTIDE2{[CCCCCCCCCCCCCCCC(=O)[*:2]].[gGlu]}$PEPTIDE1,PEPTIDE2,24:R3-2:R2$$$V2.0; SMILES CCCCCCCCCCCCCCCC(=O)N[C@@H](CCC(=O)NCCCC[C@H](NC(=O)[C@@H](NC(=O)[C@H](Cc1ccccc1)NC(=O)[C@H](CC(=O)O)NC(=O)[C@H](CCCCN)NC(=O)[C@H](C)NC(=O)[C@H](CCCNC(=N)N)NC(=O)[C@H](CCCNC(=N)N)NC(=O)[C@H](CCC(=O)O)NC(=O)[C@H](CC(=O)O)NC(=O)[C@H](CC(C)C)NC(=O)[C@H](Cc1ccc(O)cc1)NC(=O)[C@H](CCCCN)NC(=O)[C@H](CO)NC(=O)[C@H](Cc1ccc(O)cc1)NC(=O)[C@H](CC(=O)O)NC(=O)[C@H](CO)NC(=O)[C@@H](NC(=O)[C@H](Cc1ccccc1)NC(=O)[C@@H](NC(=O)CNC(=O)[C@H](CCC(N)=O)NC(=O)[C@H](CO)NC(=O)[C@@H](N)Cc1c[nH]cn1)[C@@H](C)O)[C@@H](C)O)[C@@H](C)CC)C(=O)N[C@@H](Cc1c[nH]c2ccccc12)C(=O)N[C@@H](CC(C)C)C(=O)N[C@@H](CC(C)C)C(=O)N[C@@H](CO)C(=O)N[C@@H](C)C(N)=O)C(=O)O) [H-HSQGTFTSDYSKYLDERRAKDFI-K(Hexadecanoyl-isoGlu)-WLLSA-NH2 [Compound 4]]	1.31	0.79
HSPGTFTSDYSKYLDEKRAKDFIEWLLSA (HELM PEPTIDE1{H.[dS].P.G.T.F.T.S.D.Y.S.K.Y.L.D.E.K.R.A.K.D.F.I.E.W.L.L.S.A.[am]}|PEPTIDE2{[CCCCCCCCCCCCCCCC(=O)[*:2]].[gGlu]}$PEPTIDE1,PEPTIDE2,17:R3-2:R2$$$V2.0; SMILES CCCCCCCCCCCCCCCC(=O)N[C@@H](CCC(=O)NCCCC[C@H](NC(=O)[C@H](CCC(=O)O)NC(=O)[C@H](CC(=O)O)NC(=O)[C@H](CC(C)C)NC(=O)[C@H](Cc1ccc(O)cc1)NC(=O)[C@H](CCCCN)NC(=O)[C@H](CO)NC(=O)[C@H](Cc1ccc(O)cc1)NC(=O)[C@H](CC(=O)O)NC(=O)[C@H](CO)NC(=O)[C@@H](NC(=O)[C@H](Cc1ccccc1)NC(=O)[C@@H](NC(=O)CNC(=O)[C@@H]1CCCN1C(=O)[C@@H](CO)NC(=O)[C@@H](N)Cc1c[nH]cn1)[C@@H](C)O)[C@@H](C)O)C(=O)N[C@@H](CCCNC(=N)N)C(=O)N[C@@H](C)C(=O)N[C@@H](CCCCN)C(=O)N[C@@H](CC(=O)O)C(=O)N[C@@H](Cc1ccccc1)C(=O)N[C@H](C(=O)N[C@@H](CCC(=O)O)C(=O)N[C@@H](Cc1c[nH]c2ccccc12)C(=O)N[C@@H](CC(C)C)C(=O)N[C@@H](CC(C)C)C(=O)N[C@@H](CO)C(=O)N[C@@H](C)C(N)=O)[C@@H](C)CC)C(=O)O) [H-H-DSer-PGTFTSDYSKYLDE-K(Hexadecanoyl-isoGlu)-RAKDFIEWLLSA-NH2 [Compound 21]]	0.08	0.21
HSHGTFTSDYSKYLDEKRAKDFIEWLLSA (HELM PEPTIDE1{H.S.H.G.T.F.T.S.D.Y.S.K.Y.L.D.E.K.R.A.K.D.F.I.E.W.L.L.S.A.[am]}|PEPTIDE2{[CCCCCCCCCCCCCCCC(=O)[*:2]].[gGlu]}$PEPTIDE1,PEPTIDE2,17:R3-2:R2$$$V2.0; SMILES CCCCCCCCCCCCCCCC(=O)N[C@@H](CCC(=O)NCCCC[C@H](NC(=O)[C@H](CCC(=O)O)NC(=O)[C@H](CC(=O)O)NC(=O)[C@H](CC(C)C)NC(=O)[C@H](Cc1ccc(O)cc1)NC(=O)[C@H](CCCCN)NC(=O)[C@H](CO)NC(=O)[C@H](Cc1ccc(O)cc1)NC(=O)[C@H](CC(=O)O)NC(=O)[C@H](CO)NC(=O)[C@@H](NC(=O)[C@H](Cc1ccccc1)NC(=O)[C@@H](NC(=O)CNC(=O)[C@H](Cc1c[nH]cn1)NC(=O)[C@H](CO)NC(=O)[C@@H](N)Cc1c[nH]cn1)[C@@H](C)O)[C@@H](C)O)C(=O)N[C@@H](CCCNC(=N)N)C(=O)N[C@@H](C)C(=O)N[C@@H](CCCCN)C(=O)N[C@@H](CC(=O)O)C(=O)N[C@@H](Cc1ccccc1)C(=O)N[C@H](C(=O)N[C@@H](CCC(=O)O)C(=O)N[C@@H](Cc1c[nH]c2ccccc12)C(=O)N[C@@H](CC(C)C)C(=O)N[C@@H](CC(C)C)C(=O)N[C@@H](CO)C(=O)N[C@@H](C)C(N)=O)[C@@H](C)CC)C(=O)O) [H-HSHGTFTSDYSKYLDE-K(Hexadecanoyl-isoGlu)-RAKDFIEWLLSA-NH2 [Compound 18]]	0.09	0.09
HXQGTFTSDYSKYLDERRAKDFIEWLLSA (HELM PEPTIDE1{H.[Aib].Q.G.T.F.T.S.D.Y.S.K.Y.L.D.E.R.R.A.K.D.F.I.E.W.L.L.S.A.[am]}|PEPTIDE2{[CCCCCCCCCCCCCCCC(=O)[*:2]].[gGlu]}$PEPTIDE1,PEPTIDE2,20:R3-2:R2$$$V2.0; SMILES CCCCCCCCCCCCCCCC(=O)N[C@@H](CCC(=O)NCCCC[C@H](NC(=O)[C@H](C)NC(=O)[C@H](CCCNC(=N)N)NC(=O)[C@H](CCCNC(=N)N)NC(=O)[C@H](CCC(=O)O)NC(=O)[C@H](CC(=O)O)NC(=O)[C@H](CC(C)C)NC(=O)[C@H](Cc1ccc(O)cc1)NC(=O)[C@H](CCCCN)NC(=O)[C@H](CO)NC(=O)[C@H](Cc1ccc(O)cc1)NC(=O)[C@H](CC(=O)O)NC(=O)[C@H](CO)NC(=O)[C@@H](NC(=O)[C@H](Cc1ccccc1)NC(=O)[C@@H](NC(=O)CNC(=O)[C@H](CCC(N)=O)NC(=O)C(C)(C)NC(=O)[C@@H](N)Cc1c[nH]cn1)[C@@H](C)O)[C@@H](C)O)C(=O)N[C@@H](CC(=O)O)C(=O)N[C@@H](Cc1ccccc1)C(=O)N[C@H](C(=O)N[C@@H](CCC(=O)O)C(=O)N[C@@H](Cc1c[nH]c2ccccc12)C(=O)N[C@@H](CC(C)C)C(=O)N[C@@H](CC(C)C)C(=O)N[C@@H](CO)C(=O)N[C@@H](C)C(N)=O)[C@@H](C)CC)C(=O)O) [H-H-Aib-QGTFTSDYSKYLDERRA-K(Hexadecanoyl-isoGlu)-DFIEWLLSA-NH2 [Compound 2]]	0.36	0.35
